Measured values from the Human Domainome abundance scans (Beltran et al. 2025).
± gives the uncertainty stated by the source.

B1: Ras GTPase-activating protein 1, residues 281 to 341; numbered along this chain, P20936 (parent)
chain: RRRVRAILPYTKVPDTDEISFLKGDMFIVHNELEDGWMWVTNLRTDEQGLIVEDLVEEVGR

Variants of: B1
Assay: abundance fitness (aPCA) (normalised: wild type 0, dead -1); higher = more abundant; growth selection in yeast, the domain comes from the species named
Details: Homo sapiens

Abundance fitness of substitutions, site by site:
F27: H -0.724 ± 0.05 | V -0.901 ± 0.045 | T -0.914 ± 0.069 | M -0.108 ± 0.07 | A -0.901 ± 0.06 | K -0.965 ± 0.13 | P -0.74 ± 0.081 | I -0.864 ± 0.044
V13: N 0.058 ± 0.031 | H 0.012 ± 0.03 | I -0.019 ± 0.029 | W -0.152 ± 0.058 | T 0.084 ± 0.03 | S -0.015 ± 0.025 | A 0.018 ± 0.036 | G -0.04 ± 0.025 | M -0.013 ± 0.073 | E 0.019 ± 0.047 | R 0.071 ± 0.03 | P -0.34 ± 0.042 | C 0.015 ± 0.028 | D -0.047 ± 0.033 | Y -0.137 ± 0.028 | Q 0.025 ± 0.046 | L -0.053 ± 0.029 | F -0.185 ± 0.027 | K 0.02 ± 0.072
D17: L -0.065 ± 0.033 | Q -0.011 ± 0.061 | M -0.059 ± 0.044 | I -0.275 ± 0.033 | S -0.049 ± 0.024 | F -0.182 ± 0.028 | C -0.105 ± 0.03 | P -0.088 ± 0.037 | N -0.037 ± 0.032 | E -0.006 ± 0.053 | R 0.005 ± 0.03 | H -0.061 ± 0.03 | W -0.136 ± 0.051 | Y -0.084 ± 0.026 | G -0.094 ± 0.026
E18: W -1.28 ± 0.29 | I -0.35 ± 0.036 | L -0.35 ± 0.039 | K -0.457 ± 0.11 | N -0.809 ± 0.051 | T -0.222 ± 0.038 | Q 0.047 ± 0.089 | G -0.507 ± 0.031 | H -0.452 ± 0.041 | M -0.42 ± 0.082 | R -0.353 ± 0.034 | Y -0.513 ± 0.037 | V -0.369 ± 0.029 | F -0.498 ± 0.036 | P -1.04 ± 0.12 | C -0.341 ± 0.03
L22: A -0.095 ± 0.042 | W -0.102 ± 0.058 | P -1.15 ± 0.19 | V -0.038 ± 0.035 | Y -0.102 ± 0.035 | S -0.108 ± 0.029 | F -0.145 ± 0.029 | C -0.124 ± 0.031 | T -0.153 ± 0.039 | K -0.07 ± 0.073 | Q 0.045 ± 0.13 | G -0.229 ± 0.034 | R -0.045 ± 0.032 | H -0.013 ± 0.041 | E 0.006 ± 0.083 | I 0.001 ± 0.033 | N -0.013 ± 0.034 | M -0.054 ± 0.062 | D -0.045 ± 0.045
G24: R -0.672 ± 0.039 | L -0.885 ± 0.054 | N -0.133 ± 0.033 | M -0.59 ± 0.078 | D -0.07 ± 0.031 | C -0.733 ± 0.036 | Y -0.297 ± 0.033 | Q -0.628 ± 0.11 | K -0.981 ± 0.16 | T -0.881 ± 0.066 | I -0.933 ± 0.061 | P -1.04 ± 0.11 | F -0.584 ± 0.035 | V -0.751 ± 0.036 | S -0.362 ± 0.027 | E -0.371 ± 0.052 | H -0.201 ± 0.033 | A -0.495 ± 0.034 | W -0.545 ± 0.057
P14: H -0.146 ± 0.032 | G -0.089 ± 0.025 | R -0.132 ± 0.03 | D -0.023 ± 0.028 | V -0.101 ± 0.027 | I -0.124 ± 0.029 | A -0.027 ± 0.03 | E -0.06 ± 0.066 | T -0.076 ± 0.034 | S -0.085 ± 0.025 | L -0.188 ± 0.032 | K -0.011 ± 0.061 | N -0.075 ± 0.03 | Y -0.295 ± 0.033 | F -0.348 ± 0.031 | Q -0.055 ± 0.074 | M -0.045 ± 0.063 | C -0.142 ± 0.026
K23: A -0.038 ± 0.031 | Y -0.269 ± 0.023 | S -0.102 ± 0.02 | E 0.006 ± 0.041 | L -0.232 ± 0.027 | T -0.058 ± 0.024 | G -0.23 ± 0.025 | Q -0.061 ± 0.043 | C -0.16 ± 0.023 | H -0.313 ± 0.031 | R -0.094 ± 0.022 | V -0.13 ± 0.028 | N -0.246 ± 0.023 | P -0.048 ± 0.034 | I -0.148 ± 0.021 | M -0.149 ± 0.033 | W -0.482 ± 0.037
S20: E -0.641 ± 0.08 | C -0.318 ± 0.029 | V -0.972 ± 0.057 | I -0.844 ± 0.053 | Y -0.881 ± 0.063 | H -0.977 ± 0.08 | Q -0.828 ± 0.13 | W -0.511 ± 0.1 | N -0.14 ± 0.03 | D -0.111 ± 0.029 | A -0.669 ± 0.053 | M -1.09 ± 0.2 | F -0.877 ± 0.067 | T -0.171 ± 0.035 | K -0.853 ± 0.12 | G -0.386 ± 0.028 | L -1.07 ± 0.095 | P -0.639 ± 0.077
T11: W -0.213 ± 0.049 | N -0.026 ± 0.029 | K -0.13 ± 0.067 | I -0.055 ± 0.028 | Y -0.278 ± 0.029 | E -0.108 ± 0.089 | C -0.028 ± 0.028 | S -0.05 ± 0.024 | R -0.126 ± 0.028 | G -0.416 ± 0.033 | D 0.016 ± 0.034 | P -0.696 ± 0.051 | Q -0.097 ± 0.084 | V 0.017 ± 0.029 | H -0.129 ± 0.031 | A -0.05 ± 0.035 | L -0.169 ± 0.028 | F -0.184 ± 0.026
